Source: US20250136688A1 (Janssen / Centocor, published 2025)

Columns and labels:
[1] = target: T1, ectonucleotide pyrophosphatase/phosphodiesterase family member 1 (ENPP1) (human, UniProt P22413 1-925); assay: flow cytometry on CHOK1 cells overexpressing ENPP1
T1 construct: whole, on cells
T1 sequence (looked up): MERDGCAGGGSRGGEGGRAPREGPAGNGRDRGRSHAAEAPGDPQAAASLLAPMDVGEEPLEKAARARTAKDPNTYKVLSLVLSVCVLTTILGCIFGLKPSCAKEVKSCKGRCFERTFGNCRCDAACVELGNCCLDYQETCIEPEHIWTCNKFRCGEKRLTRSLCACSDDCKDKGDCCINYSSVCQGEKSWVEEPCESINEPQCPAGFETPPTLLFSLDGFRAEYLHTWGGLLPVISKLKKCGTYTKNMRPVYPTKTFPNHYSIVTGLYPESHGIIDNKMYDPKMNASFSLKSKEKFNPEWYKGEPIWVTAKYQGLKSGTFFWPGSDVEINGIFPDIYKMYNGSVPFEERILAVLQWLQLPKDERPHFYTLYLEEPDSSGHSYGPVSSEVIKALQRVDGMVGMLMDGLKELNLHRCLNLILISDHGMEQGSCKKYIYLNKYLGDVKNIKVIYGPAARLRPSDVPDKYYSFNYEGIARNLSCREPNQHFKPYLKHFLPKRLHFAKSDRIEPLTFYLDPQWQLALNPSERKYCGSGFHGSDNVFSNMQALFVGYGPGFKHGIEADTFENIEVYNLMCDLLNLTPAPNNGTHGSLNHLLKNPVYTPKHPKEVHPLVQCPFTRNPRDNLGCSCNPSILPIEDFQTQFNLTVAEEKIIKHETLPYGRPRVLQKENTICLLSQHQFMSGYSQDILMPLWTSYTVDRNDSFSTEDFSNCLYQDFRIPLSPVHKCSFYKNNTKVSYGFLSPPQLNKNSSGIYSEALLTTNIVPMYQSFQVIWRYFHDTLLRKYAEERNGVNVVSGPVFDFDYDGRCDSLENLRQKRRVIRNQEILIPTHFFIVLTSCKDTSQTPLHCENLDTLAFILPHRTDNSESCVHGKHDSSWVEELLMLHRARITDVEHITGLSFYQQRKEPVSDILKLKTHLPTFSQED

[2] = target: T2, ectonucleotide pyrophosphatase/phosphodiesterase family member 3 (ENPP3) (human, UniProt O14638 1-875); assay: flow cytometry on VMRCRCW cells
T2 construct: whole, on cells; also called CD203c
T2 sequence (looked up): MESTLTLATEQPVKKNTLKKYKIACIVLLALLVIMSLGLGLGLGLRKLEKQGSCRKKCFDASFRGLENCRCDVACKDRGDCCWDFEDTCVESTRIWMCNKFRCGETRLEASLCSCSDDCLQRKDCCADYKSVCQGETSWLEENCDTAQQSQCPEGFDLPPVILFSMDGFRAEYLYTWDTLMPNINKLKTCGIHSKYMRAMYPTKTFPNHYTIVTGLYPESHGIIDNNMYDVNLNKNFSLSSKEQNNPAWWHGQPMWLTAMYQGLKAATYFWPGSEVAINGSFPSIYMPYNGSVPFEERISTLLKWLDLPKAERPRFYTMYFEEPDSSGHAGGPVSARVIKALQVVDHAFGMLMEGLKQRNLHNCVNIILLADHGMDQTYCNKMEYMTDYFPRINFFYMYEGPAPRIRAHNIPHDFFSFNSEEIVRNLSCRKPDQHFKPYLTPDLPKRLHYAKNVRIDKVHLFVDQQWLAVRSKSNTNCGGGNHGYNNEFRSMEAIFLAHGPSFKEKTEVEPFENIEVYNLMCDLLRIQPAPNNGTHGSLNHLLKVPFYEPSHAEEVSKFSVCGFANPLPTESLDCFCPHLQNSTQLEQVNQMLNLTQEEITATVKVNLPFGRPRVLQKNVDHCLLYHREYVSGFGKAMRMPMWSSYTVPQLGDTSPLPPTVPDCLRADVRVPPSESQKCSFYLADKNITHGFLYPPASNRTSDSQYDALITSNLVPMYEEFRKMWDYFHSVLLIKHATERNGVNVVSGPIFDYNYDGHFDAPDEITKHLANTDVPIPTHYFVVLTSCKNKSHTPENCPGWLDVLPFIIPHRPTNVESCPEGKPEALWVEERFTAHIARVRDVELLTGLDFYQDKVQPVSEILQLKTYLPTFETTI

[3] = target: T2, ectonucleotide …; assay: flow cytometry on A704 cells
[4] = target: T2, ectonucleotide …; assay: cell-based or functional assay
[5] = target: T2, ectonucleotide …; assay: cell-based or functional assay; remark: listed apart in the source
[6] = target: ectonucleotide pyrophosphatase/phosphodiesterase family member 2 (ENPP2) (human, UniProt Q13822 36-863); assay: flow cytometry on CHOK1 cells overexpressing ENPP2

B1: NPP3B815 (NPP3B56×CD3B2030-N106A-spFv) (bispecific antibody, human IgG1, kappa, L234A L235A)
chain: EIVLTQSPATLSASPGERVTLSCSASSSVSYMNWYQQKPGCAPRRWIYDSSKLASGVPARFSGSGSGRDYTLTISSLEPEDFAVYYCQQWSRNPPTFGGGTKVEIKGGGSGGSGGCPPCGGSGGQVQLVQSGAEVKKPGSSVKVSCKASGYTFTRSTMHWVKQAPGQGLEWIGYINPSSAYTNYNQKFQGRVTLTADKSTSTAYMELSSLRSEDTAVYYCASPQVHYDYAGFPYWGCGTLVTVSSEPKSSDKTHTCPPCPAPEAAGGPSVFLFPPKPKDTLMISRTPEVTCVVVSVSHEDPEVKFNWYVDGVEVHNAKTKPREEQYNSTYRVVSVLTVLHQDWLNGKEYKCKVSNKALPAPIEKTISKAKGQPREPQVYTLPPSREEMTKNQVSLWCLVKGFYPSDIAVEWESNGQPENNYKTTPPVLDSDGSFFLYSKLTVDKSRWQQGNVFSCSVMHEALHNHYTQKSLSLSPGK
heavy: EVQLVESGGGRVKPGGSLRLSCAASGFTFSDYSMNWVRQAPGKGLEWVSSISSISSYVKYADSVKGRFTMSRDNAKNSLFLQMNSLRDEDMAVYYCARGHYFDYWGQGTLVTVSSASTKGPSVFPLAPSSKSTSGGTAALGCLVKDYFPEPVTVSWNSGALTSGVHTFPAVLQSSGLYSLSSVVTVPSSSLGTQTYICNVNHKPSNTKVDKKVEPKSCDKTHTCPPCPAPEAAGGPSVFLFPPKPKDTLMISRTPEVTCVVVSVSHEDPEVKFNWYVDGVEVHNAKTKPREEQYNSTYRVVSVLTVLHQDWLNGKEYKCKVSNKALPAPIEKTISKAKGQPREPQVYTLPPSREEMTKNQVSLSCAVKGFYPSDIAVEWESNGQPENNYKTTPPVLDSDGSFFLVSKLTVDKSRWQQGNVFSCSVMHEALHNRFTQKSLSLSPGK
light: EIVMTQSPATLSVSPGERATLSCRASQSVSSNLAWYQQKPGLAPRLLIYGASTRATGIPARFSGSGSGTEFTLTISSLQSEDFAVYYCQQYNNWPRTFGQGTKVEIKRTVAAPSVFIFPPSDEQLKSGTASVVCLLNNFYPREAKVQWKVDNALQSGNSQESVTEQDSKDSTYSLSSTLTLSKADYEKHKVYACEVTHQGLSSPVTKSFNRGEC
notes: Heavy Chain 1 = anti-CD3 spFv-Fc (knob); Heavy Chain 2 and Light Chain = anti-ENPP3 Fab arm NPP3B56 (hole); IgG1 with L234A, L235A, D265S; also called ENPP3×CD3
- binding result [1]: no binding
- EC50 [2]: 500 pM
- EC50 [3]: 1010 pM
- killing EC50 @ 72 hrs, A704, T-cell donor 110040278, E:T 1:1 [4]: 75 pM
- killing EC50 @ 72 hrs, A704, T-cell donor 110040278, E:T 3:1 [4]: 48.4 pM
- killing EC50 @ 72 hrs, A704, T-cell donor 110042496, E:T 1:1 [4]: 132 pM
- killing EC50 @ 72 hrs, A704, T-cell donor 110042496, E:T 3:1 [4]: 69.6 pM
- killing EC50 @ 72 hrs, A704, T-cell donor 110042593, E:T 1:1 [4]: 114 pM
- killing EC50 @ 72 hrs, A704, T-cell donor 110042593, E:T 3:1 [4]: 33.6 pM
- killing EC50 @ 72 hrs, A704, T-cell donor 110044049, E:T 3:1 [4]: 52.4 pM
- killing EC50 @ 72 hrs, A704, T-cell donor 888668965, E:T 3:1 [4]: 45.4 pM
- killing EC50 @ 72 hrs, VMRCRCW, T-cell donor 110040278, E:T 1:1 [4]: 243 pM
- killing EC50 @ 72 hrs, VMRCRCW, T-cell donor 110040278, E:T 1:3 [4]: 456 pM
- killing EC50 @ 72 hrs, VMRCRCW, T-cell donor 110040278, E:T 3:1 [4]: 92.3 pM
- killing EC50 @ 72 hrs, VMRCRCW, T-cell donor 110042496, E:T 1:1 [4]: 465 pM
- killing EC50 @ 72 hrs, VMRCRCW, T-cell donor 110042496, E:T 3:1 [4]: 128 pM
- killing EC50 @ 72 hrs, VMRCRCW, T-cell donor 110042593, E:T 1:1 [4]: 225 pM
- killing EC50 @ 72 hrs, VMRCRCW, T-cell donor 110042593, E:T 3:1 [4]: 79.5 pM
- killing EC50 @ 72 hrs, VMRCRCW, T-cell donor 110044049, E:T 1:1 [4]: 151 pM
- killing EC50 @ 72 hrs, VMRCRCW, T-cell donor 110044049, E:T 1:3 [4]: 226 pM
- killing EC50 @ 72 hrs, VMRCRCW, T-cell donor 110044049, E:T 3:1 [4]: 115 pM
- killing EC50 @ 72 hrs, VMRCRCW, T-cell donor 110048457, E:T 1:1 [4]: 177 pM
- killing EC50 @ 72 hrs, VMRCRCW, T-cell donor 110048457, E:T 1:3 [4]: 276 pM
- killing EC50 @ 72 hrs, VMRCRCW, T-cell donor 110048457, E:T 3:1 [4]: 372 pM
- killing EC50 @ 72 hrs, VMRCRCW, T-cell donor 888668965, E:T 1:1 [4]: 273 pM
- killing EC50 @ 72 hrs, VMRCRCW, T-cell donor 888668965, E:T 1:3 [4]: 469 pM
- killing EC50 @ 72 hrs, VMRCRCW, T-cell donor 888668965, E:T 3:1 [4]: 156 pM
- killing EC50 @ 120 hrs, A704, T-cell donor 110040278, E:T 1:1 [4]: 41 pM
- killing EC50 @ 120 hrs, A704, T-cell donor 110040278, E:T 1:3 [4]: 149 pM
- killing EC50 @ 120 hrs, A704, T-cell donor 110042496, E:T 1:1 [4]: 73 pM
- killing EC50 @ 120 hrs, A704, T-cell donor 110042496, E:T 1:3 [4]: 191 pM
- killing EC50 @ 120 hrs, A704, T-cell donor 110042593, E:T 1:1 [4]: 48 pM
- killing EC50 @ 120 hrs, A704, T-cell donor 110042593, E:T 1:3 [4]: 106 pM
- killing EC50 @ 120 hrs, A704, T-cell donor 110044049, E:T 1:1 [4]: 125 pM
- killing EC50 @ 120 hrs, A704, T-cell donor 888668965, E:T 1:3 [4]: 163 pM
- killing EC50 @ 120 hrs, VMRCRCW, T-cell donor 110040278, E:T 1:1 [4]: 264 pM
- killing EC50 @ 120 hrs, VMRCRCW, T-cell donor 110040278, E:T 1:3 [4]: 332 pM
- killing EC50 @ 120 hrs, VMRCRCW, T-cell donor 110042496, E:T 1:1 [4]: 454 pM
- killing EC50 @ 120 hrs, VMRCRCW, T-cell donor 110042496, E:T 1:3 [4]: 500 pM
- killing EC50 @ 120 hrs, VMRCRCW, T-cell donor 110042593, E:T 1:1 [4]: 218 pM
- killing EC50 @ 120 hrs, VMRCRCW, T-cell donor 110042593, E:T 1:3 [4]: 485 pM
- killing EC50 @ 120 hrs, VMRCRCW, T-cell donor 110044049, E:T 1:1 [4]: 216 pM
- killing EC50 @ 120 hrs, VMRCRCW, T-cell donor 110044049, E:T 1:3 [4]: 337 pM
- killing EC50 @ 120 hrs, VMRCRCW, T-cell donor 110048457, E:T 1:1 [4]: 210 pM
- killing EC50 @ 120 hrs, VMRCRCW, T-cell donor 110048457, E:T 1:3 [4]: 267 pM
- killing EC50 @ 120 hrs, VMRCRCW, T-cell donor 888668965, E:T 1:1 [4]: 345 pM
- killing EC50 @ 120 hrs, VMRCRCW, T-cell donor 888668965, E:T 1:3 [4]: 379 pM
- T-cell activation EC50, A704, donor 110040278, E:T 3:1 [5]: 8 pM
- T-cell activation EC50, A704, donor 110042496, E:T 3:1 [5]: 17 pM
- T-cell activation EC50, A704, donor 110042593, E:T 3:1 [5]: 13 pM
- T-cell activation EC50, A704, donor 110044049, E:T 3:1 [5]: 8 pM
- T-cell activation EC50, A704, donor 110048457, E:T 3:1 [5]: 10 pM
- T-cell activation EC50, A704, donor 888668965, E:T 3:1 [5]: 8 pM
- T-cell activation EC50, VMRCRCW, donor 110040278, E:T 3:1 [5]: 7 pM
- T-cell activation EC50, VMRCRCW, donor 110042496, E:T 3:1 [5]: 15 pM
- T-cell activation EC50, VMRCRCW, donor 110042593, E:T 3:1 [5]: 17 pM
- T-cell activation EC50, VMRCRCW, donor 110044049, E:T 3:1 [5]: 9 pM
- T-cell activation EC50, VMRCRCW, donor 110048457, E:T 3:1 [5]: 9 pM
- T-cell activation EC50, VMRCRCW, donor 888668965, E:T 3:1 [5]: 16 pM
- binding result [6]: no binding
